Test results reported in article PMC5371648.

Target: modern EF-Tu (elongation factor Tu) from E. coli (E. coli) (UniProt P0CE47)
Experiment: ITC; Microcal ITC200; 0.6-1 mM NusA in the syringe titrated (2.5 uL injections, 120-s intervals) into 10 uM EF-Tu in the cell; Buffer C (20 mM Tris-HCl pH 7.5, 50 mM MgCl2, 100 mM KCl)

Kd: 14.6 µM
Substance: wild-type NusA protein from E. coli (from UniProt P0AFF6 1-495) (natural protein)
